These results are taken from PMC12583548.

Assay [1] addresses HAstV1 capsid spike domain mutant K514A, 10x histidine-tagged (human astrovirus 1 (HAstV1)) (UniProt O12792). Nature of the assay: BLI; HIS1K biosensors loaded with 10x histidine-tagged spike, FcRn in solution at 1000, 500, 250, 125 and 62.5 nM; pH 7.0 buffer, 25 °C; 1:1 model. On the technique in general: Biolayer interferometry detects binding as a change in optical thickness at a sensor tip.

For assay [2], the target named is HAstV2 capsid spike domain, 10x histidine-tagged (human astrovirus 2 (HAstV2)). The assay is described as above.
For assay [3], the target named is HAstV4 capsid spike domain, 10x histidine-tagged (human astrovirus 4 (HAstV4)). The assay is described as above.
Assay [4] has as its target HAstV5 capsid spike domain, 10x histidine-tagged (human astrovirus 5 (HAstV5)). The description is as above.
The target in assay [5] is HAstV6 capsid spike domain, 10x histidine-tagged (human astrovirus 6 (HAstV6)). The assay is described as above.
In assay [6] the target is HAstV1 capsid spike domain mutant K467A, 10x histidine-tagged (human astrovirus 1 (HAstV1)) (UniProt O12792). Nature of the assay: BLI; HIS1K biosensors loaded with histidine-tagged spike, FcRn in solution at a single concentration of 2000 nM, kinetics estimated from that one concentration; pH 7.0 buffer, 25 °C; 1:1 model.
Assay [7] addresses HAstV1 capsid spike domain mutant Y475A, 10x histidine-tagged (human astrovirus 1 (HAstV1)) (UniProt O12792). The assay is described as above.
The target in assay [8] is HAstV3 capsid spike domain, 10x histidine-tagged (human astrovirus 3 (HAstV3)). The description is as above.
The target of assay [9] is HAstV7 capsid spike domain, 10x histidine-tagged (human astrovirus 7 (HAstV7)). Described as above.
Assay [10] deals with HAstV1 capsid spike domain mutant K467H, Avitag-biotinylated (human astrovirus 1 (HAstV1)) (UniProt O12792). Nature of the assay: BLI; streptavidin biosensors loaded with Avitag-biotinylated spike, FcRn in solution (500-62.5 nM for the wild type); pH 7.0 (0.1 M sodium phosphate, 150 mM NaCl, 0.05% Tween-20), 25 °C; 1:1 model.
In assay [11] the target is HAstV1 capsid spike domain, Avitag-biotinylated (human astrovirus 1 (HAstV1)) (UniProt O12792). Nature of the assay: BLI; streptavidin biosensor loaded with biotinylated HAstV1 spike; wild-type or mutant FcRn in solution (500-31.25 nM series; T149N_G151T_D153E at 2000 and 1000 nM); pH 7.0 (0.1 M sodium phosphate, 150 mM NaCl, 0.05% Tween-20), 25 °C; 1:1 model; triplicate.

The target in assay [12] is HAstV1 capsid spike domain triple mutant 3A (K467A, Y475A, K514A), 10x histidine-tagged (human astrovirus 1 (HAstV1)) (UniProt O12792). Nature of the assay: SEC; Superdex 200 Increase 10/300 GL; traces of the HAstV1 spike mutants overlayed with BioRad gel filtration standards. A general note: In gel filtration, larger molecules generally elute earlier.
The target is the same in assay [13]. In words: SEC; Superdex 200 Increase 10/300 GL, HAstV1 spike mutants alone.
The target in assay [14] is HAstV1 capsid spike domain mutant K467H, Avitag-biotinylated (human astrovirus 1 (HAstV1)) (UniProt O12792). In words: BLI; streptavidin biosensors loaded with biotinylated HAstV1 K467H spike, dipped into FcRn (2000 nM); pH 7.0 (0.1 M sodium phosphate, 150 mM NaCl, 0.05% Tween-20), 25 °C; 1:1 model; average of three replicates.
Assay [15] has the same target. In words: BLI; streptavidin biosensors loaded with biotinylated HAstV1 K467H spike, dipped into FcRn (1000, 500, 250 nM); pH 5.0 (0.1 M sodium acetate, 150 mM NaCl, 0.05% Tween-20), 25 °C; 1:1 model; average of three replicates.
The target of assay [16] is HAstV1 capsid spike domain, Avitag-biotinylated (human astrovirus 1 (HAstV1)) (UniProt O12792). In words: BLI; biosensors loaded with biotinylated HAstV1 spike (streptavidin, as in Fig. 1a); human or mouse FcRn in solution, 500, 250, 125, 62.5 nM; pH 7.0 (0.1 M sodium phosphate, 150 mM NaCl, 0.05% Tween-20), 25 °C; 1:1 model; average of three replicates.
Assay [17] has as its target HAstV1 capsid spike domain mutant Y475A, 10x histidine-tagged (human astrovirus 1 (HAstV1)) (UniProt O12792). Nature of the assay: SEC; Superdex 200 Increase 10/300 GL, HAstV1 spike mutants alone.
Assay [18] shares this target. In words: SEC; Superdex 200 Increase 10/300 GL; traces of the HAstV1 spike mutants overlayed with BioRad gel filtration standards.
Assay [19] concerns the target HAstV1 capsid spike domain mutant K467A, 10x histidine-tagged (human astrovirus 1 (HAstV1)) (UniProt O12792). In words: SEC; Superdex 200 Increase 10/300 GL, HAstV1 spike mutants alone.
For assay [20] the target is unchanged. In words: SEC; Superdex 200 Increase 10/300 GL; traces of the HAstV1 spike mutants overlayed with BioRad gel filtration standards.
In assay [21] the target is HAstV1 capsid spike domain mutant K467H, Avitag-biotinylated (human astrovirus 1 (HAstV1)) (UniProt O12792). Described as above.
Assay [22] deals with HAstV1 capsid spike domain mutant K514A, 10x histidine-tagged (human astrovirus 1 (HAstV1)) (UniProt O12792). In words: SEC; Superdex 200 Increase 10/300 GL, HAstV1 spike mutants alone.
Assay [23] shares this target. Nature of the assay: SEC; Superdex 200 Increase 10/300 GL; traces of the HAstV1 spike mutants overlayed with BioRad gel filtration standards.

As usually defined, the Kd is the equilibrium constant for the complex coming apart. A word on the koff: it is a measure of how fast the partners let go of each other. The kon is a measure of how fast the partners come together. A low value points to slow association. The term stoichiometry N denotes the number of molecules, sites or subunits per partner or assembly.

As to “neonatal Fc receptor (FcRn), recombinant human ectodomain heterodimer of FcRn α-chain and β2 microglobulin, with tags (from UniProt P55899;P61769)”, the Kd in assay [1] was 2.5 µM; in [3] it was 0.23 µM; in [4], 0.152 µM; in assay [6] it was 15 µM; in [7] it was 8 µM; in assay [8] it was 181 µM. Further, the results for the Kd in [9] and in assay [10] were 10.3 µM and 22.5 µM, respectively. In addition, the koff in [1] is 0.056 s⁻¹; in assay [2], 0.048 s⁻¹; in assay [4], 0.006 s⁻¹; in assay [5] it was 0.015 s⁻¹; in assay [6], 0.284 s⁻¹; in [7], 0.22 s⁻¹. The koff was 0.099 s⁻¹ in assay [8] and 0.013 s⁻¹ in assay [9].
Take “human FcRn mutant D153E (ectodomain heterodimer with β2 microglobulin) (from UniProt P55899 24-297; P61769 21-119) (receptor)”: in [11], the koff is 0.14 s⁻¹ and the kon worked out at 85000 M⁻¹ s⁻¹.
Consider “HAstV1 capsid spike domain triple mutant 3A (K467A, Y475A, K514A), 10x histidine-tagged (from UniProt O12792 433-645) (domain or fragment)”, for which, in [12], the stoichiometry N turned out to be 2.
As to “HAstV1 capsid spike domain triple mutant 3 A (K467A, Y475A, K514A), 10x histidine-tagged (from UniProt O12792 433-645) (domain or fragment)”, in assay [13], the stoichiometry N turned out to be 2.
For “human FcRn mutant T149N_G151T (ectodomain heterodimer with β2 microglobulin) (from UniProt P55899 24-297; P61769 21-119) (receptor)”, in assay [11], the koff came to 0.034 s⁻¹ and the kon was determined as 74000 M⁻¹ s⁻¹.
For “human neonatal Fc receptor (FcRn), wild-type ectodomain heterodimer of αFcRn and β2 microglobulin (from UniProt P55899 24-297; P61769 21-119)”, the koff stood at 0.24 s⁻¹ in assay [14], 0.051 s⁻¹ in assay [15], 0.018 s⁻¹ in assay [16] and 0.0223 s⁻¹ in assay [11]. Moreover, the kon in assay [14] stood at 11000 M⁻¹ s⁻¹; in assay [15], 66000 M⁻¹ s⁻¹; in [16], 94000 M⁻¹ s⁻¹; in assay [11] it was 93000 M⁻¹ s⁻¹.
As for “HAstV1 capsid spike domain mutant Y475A, 10x histidine-tagged (from UniProt O12792 433-645) (domain or fragment)”, the stoichiometry N in [17] and in assay [18] was 2 each time.
Regarding “HAstV1 capsid spike domain mutant K467A, 10x histidine-tagged (from UniProt O12792 433-645) (domain or fragment)”, the stoichiometry N in assay [19] and in assay [20] was 2 in each case.
For the substance “HAstV1 capsid spike domain mutant K467H, Avitag-biotinylated (from UniProt O12792 433-645) (domain or fragment)”, the stoichiometry N in [21] is 2.
Consider “HAstV1 capsid spike domain mutant K514A, 10x histidine-tagged (from UniProt O12792 433-645) (domain or fragment)”, for which the stoichiometry N in [22] and in [23] was 2 each time.
With “human FcRn mutant T149N_G151T_D153E (ectodomain heterodimer with β2 microglobulin) (from UniProt P55899 24-297; P61769 21-119) (receptor)”, in assay [11], the Kd came to 11.9 µM, the koff came out at 0.37 s⁻¹ and the kon stood at 31000 M⁻¹ s⁻¹.
